Assay [1] has as its target T1, Pf12 D1D2 (Plasmodium falciparum, UniProt C6KSX0).
T1 construct: Pf12, 6-cysteine protein of Plasmodium falciparum, residues N28-S304 (domains D1 and D2); Called untagged for the BLI; also called untagged Pf12 D1D2; recombinant Pf12; source: Sf21 insect cells (baculovirus), purified following the protocol of Pf12p with some modifications; not shown: His8, N-terminal, cleaved
Kind of assay: ELISA; MaxiSorp wells coated with 65 nM recombinant protein (Pf12p D1D2, Pf12p D2, Pf12 or Pf41) in PBS; 65 nM nanobody, 1 h at RT; bound nanobody detected with mouse anti-His and HRP-conjugated anti-mouse; duplicates. To be noted: both partners purified. In general terms: An ELISA detects its analyte on a solid surface through an enzyme-linked reagent.

For assay [2], the target named is T2, Pf41 D1D2 (Plasmodium falciparum, UniProt Q8I1Y0).
T2 construct: Pf41, 6-cysteine protein of Plasmodium falciparum, residues K21-S368 (domains D1 and D2); The Pf41 of the ELISA and of the SEC study; also called recombinant Pf41; source: Sf21 insect cells (baculovirus), purified following the protocol of Pf12p with some modifications
Described as above. To be noted: both partners purified.

The target in assay [3] is T3, Pf12p D1D2 (Plasmodium falciparum, UniProt C6KSX1).
T3 construct: also called recombinant Pf12p; untagged Pf12p D1D2; source: Sf21 insect cells (baculovirus, secreted), purified (Ni-NTA, TEV cleavage, SEC); not shown: His8, N-terminal, cleaved
Put plainly: BLI; Octet RED96e; nanobodies (5 ug/ml) loaded on Ni-NTA sensors; untagged Pf12p D1D2 6-200 nM in solution (13-400 nM for A10); PBS pH 7.4, 0.1% BSA, 0.05% Tween-20, 25 C; global 1:1 fit; mean of three experiments. To be noted: both partners purified. For orientation: Biolayer interferometry detects binding as a change in optical thickness at a sensor tip.

For assay [4], the target named is T4, His-tagged Pf41 (Plasmodium falciparum, UniProt Q8I1Y0 21-368).
T4 construct: Pf41, 6-cysteine protein of Plasmodium falciparum, residues K21-S368 (domains D1 and D2); The form loaded on Ni-NTA sensors for BLI; a TEV site stands between the His8 tag and Pf41; also called immobilized Pf41; source: Sf21 insect cells (baculovirus), purified following the protocol of Pf12p with some modifications; not shown: His8, N-terminal, kept
T4 sequence: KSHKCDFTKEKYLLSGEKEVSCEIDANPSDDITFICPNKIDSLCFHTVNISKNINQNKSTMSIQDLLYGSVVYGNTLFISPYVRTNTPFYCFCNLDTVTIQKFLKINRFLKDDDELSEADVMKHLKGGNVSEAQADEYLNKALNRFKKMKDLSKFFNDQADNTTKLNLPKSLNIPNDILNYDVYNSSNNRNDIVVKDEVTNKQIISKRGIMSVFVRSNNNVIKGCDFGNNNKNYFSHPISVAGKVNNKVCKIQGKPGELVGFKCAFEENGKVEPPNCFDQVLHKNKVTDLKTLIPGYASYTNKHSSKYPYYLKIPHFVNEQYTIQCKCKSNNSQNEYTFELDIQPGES
Kind of assay: BLI; His-tagged Pf41 (10 or 20 ug/ml) loaded on Ni-NTA sensors; untagged Pf12 D1D2 or untagged Pf12p D1D2 in solution, 16-500 nM or 31-1000 nM; PBS pH 7.4, 0.1% BSA, 0.05% Tween-20, 25 C; 1:1 fit. To be noted: both partners purified.

For assay [5], the target named is Nine out of 10 nanobodies (alpaca). Put plainly: BLI; Octet RED96e; nanobodies (5 ug/ml) loaded on Ni-NTA sensors; untagged Pf12p D1D2 6-200 nM in solution (13-400 nM for A10); PBS pH 7.4, 0.1% BSA, 0.05% Tween-20, 25 C; global 1:1 fit; mean of three experiments.
Assay [6] deals with T5, Pf12p D2 (Plasmodium falciparum (3D7 entry …, UniProt C6KSX1)).
T5 construct: Pf12p, 6-cysteine protein of Plasmodium falciparum, amino acids N168-S341: the C-terminal domain D2 only; Same vector and protocol as Pf12p D1D2; source: Sf21 insect cells (baculovirus, secreted), purified (Ni-NTA, TEV cleavage, SEC); not shown: His8, N-terminal, cleaved
Put plainly: ELISA; MaxiSorp wells coated with 65 nM recombinant protein (Pf12p D1D2, Pf12p D2, Pf12 or Pf41) in PBS; 65 nM nanobody, 1 h at RT; bound nanobody detected with mouse anti-His and HRP-conjugated anti-mouse; duplicates. To be noted: both partners purified.

Assay [7] concerns the target T3, Pf12p D1D2. Put plainly: far-Western, overlay or dot blot; purified Pf12p D1D2 run on 4-12% Bis-Tris SDS-PAGE under reduced and non-reduced conditions, blotted on PVDF, probed with 0.5 ug/ml nanobody, detected with HRP-conjugated goat anti-llama IgG. To be noted: both partners purified.
Assay [8] has as its target T3, Pf12p D1D2. Kind of assay: ELISA; MaxiSorp wells coated with 65 nM recombinant protein (Pf12p D1D2, Pf12p D2, Pf12 or Pf41) in PBS; 65 nM nanobody, 1 h at RT; bound nanobody detected with mouse anti-His and HRP-conjugated anti-mouse; duplicates. The settings on record: both partners purified.

Substitutions are numbered along the chain they refer to.

B1: nanobody B12 (VHH)
VHH: QVQLQESGGGLVQAGGSLRLSCAASGRTFSSLTMGWFRQAPGKEREFVAGNAWNWSDGTTYYADSVRGRFTISRDNAKKTVYLQMNSLKPEDTAVYYCACAGDRPRVRVPVNSNDYDYWGQGTQVTVSS
notes: From a phage library (pMES4 phagemid) of an alpaca immunized with Pf12p D1D2; source: E. coli WK6, periplasmic extract, purified (HisTrap, SEC)
With B1, the binding result was “no binding (tested: 65 nM)” in assay [1], “no binding (tested: 65 nM)” in assay [2] and “binds” in assay [3].

B2: Pf12 D1D2 (domain or fragment, Plasmodium falciparum, UniProt C6KSX0 28-304, looked up)
chain: NLTCDFNDVYKLEFHPNQQTSVTKLCNLTPNVLEKVTIKCGSDKLNYNLYPPTCFEEVYASRNMMHLKKIKEFVIGSSMFMRRSLTPNKINEVSFRIPPNMMPEKPIYCFCENKKTITINGSNGNPSSKKDIINRGIVEIIIPSLNEKVKGCDFTTSESTIFSKGYSINEISNKSSNNQQDIVCTVKAHANDLIGFKCPSNYSVEPHDCFVSAFNLSGKNENLENKLKLTNIIMDHYNNTFYSRLPSLISDNWKFFCVCSKDNEKKLVFTVEASISS
notes: Pf12, 6-cysteine protein of Plasmodium falciparum, residues N28-S304 (domains D1 and D2); Called untagged for the BLI; also called untagged Pf12 D1D2; recombinant Pf12; source: Sf21 insect cells (baculovirus), purified following the protocol of Pf12p with some modifications; not shown: His8, N-terminal, cleaved
Broadly, the Kd is a measure of binding affinity in units of concentration. Low values mean tighter binding, high ones weaker binding. In assay [4], B2 returned a dissociation constant (Kd) of 144 ± 22.6 nM.

B3: Pf12p D1D2 (domain or fragment)
chain: NGVCDFSSEGLSLLPEEKLDFSVSRNVDKLSDENNVRHCVHFSKGFEYLRFICPMRKDNYEGIEIRPVECFEYIHIEGREHKLSEILKGSLYEKSINDNIMTRDVFIPPTIYEDMFFECTCDNSLTFKNNMIGIRGIMKIHLKKNILYGCDFDHDEKLMKNKTAFTNFYDKQKILPLIGNNNNDDDNNDDDNNNDNNNNDNNNNNNNNNNNNNNNNNNNITCNVTIKKSQVYLGIICPDGYTLYPNDCFKNVIYDNNIIIPLKKIIPHDILYHQDKNKRITFASFTLNINENPPGFTCYCIKDQTNINNPLIVNFHFS
One may read the kon as the rate constant with which the complex forms. In assay [5], B3 had a Kd of 3 nM and a kon of 100000 M⁻¹ s⁻¹.

B4: nanobody D9 (VHH)
VHH: QVQLQESGGGLVQPGGSLRLSCAASGIIFSSHVMGWYRQAPGKQRELVASFSGDTGAKYADSVKGRFIIRRENAKNMVTLYLQMNSLKPEDTAAYYCHVDRFGTEYWGQGTQVTVSS
notes: as for B1
In the case of B4, the results for the binding result in assay [1], in assay [2] and in assay [3] were “no binding (tested: 65 nM)”, “no binding (tested: 65 nM)” and “binds”, respectively.

B5: nanobody C4 (VHH)
VHH: QVQLQESGGGLVQPGESLRLSCAASTSIFTVYTMGWYRQAPGKLREWVADVTVGDNRDYVDSVKGRFTISRDNATNTVYLQMNNVKPEDTAVYYCNRVPPGPSGSWGQGTQVTVSS
notes: as for B1
B5: the binding result in assay [1] was “no binding (tested: 65 nM)”; in assay [2], “no binding (tested: 65 nM)”; in assay [6], “binds”; in assay [3], “binds”.

B6: nanobody A10 (VHH)
VHH: QVQLQESGGGLVQPGGSLRLSCAASGIIFSSNTMGWYRQAPGKQRELVASFSGETGANYADSVKGRFIIRRDNAKNAVYLLMNSLKPDDTAAYYCHADRFGTDYWGQGTQVTVSS
notes: as for B1
B6: the binding result in assay [1] and in assay [2] was “no binding (tested: 65 nM)” throughout. In assay [3], the Kd was around 105 nM.

B7: nanobody B2 (VHH)
VHH: QVQLQESGGGLVQPGGSLRLSCAASGSAFSRVAMGWYRQAPGKLREYVADITRGGTTDYADSVKGRFTISRDNAKNTIYLQMDSLKPEDTAVYYCNLVPPIRGGYWGQGTQVTVSS
notes: as for B1
Consider B7, for which the binding result in assay [1] was “no binding (tested: 65 nM)”; in assay [2], “no binding (tested: 65 nM)”; in assay [6], “binds”; in assay [7] it was “binds”.

B8: nanobody C12 (VHH)
VHH: B7 VHH with I78V, Y79F, L97S
notes: as for B1
For the molecule B8, the binding result in assay [1] was “no binding (tested: 65 nM)”; in assay [2], “no binding (tested: 65 nM)”; in assay [6] it was “binds”; in assay [7] it was “binds”.

B9: nanobody B9 (VHH)
VHH: QVQLQESGGGLVQAGGSLRLSCTASGRTFSNTVMGWFRQAPGKEREFLAHILWSGGLAYYADSVKGRFTISRDNAKNIVYLQMNSLKPEDTAVYYCAARDFGFGNNYDYWGQGTQVTVSS
notes: From a phage library (pMES4 phagemid) of an alpaca immunized with Pf12p D1D2; also called Nb B9; source: E. coli WK6, periplasmic extract, purified (HisTrap, SEC)
Turning to B9, the binding result in assay [1] is “no binding (tested: 65 nM)”; in assay [2], “no binding (tested: 65 nM)”; in assay [6], “binds”; in assay [3], “binds”.

B10: nanobody F7 (VHH)
VHH: QVQLQESGGGLVQPGGSLRLSCAASGSAFSRVAMGWYRQAPGKLREYVADITYGGATDYADSVKGRFTISRDNAKNTIYLQMDSLKPEDTAVYYCNLVPPIGGYWGQGTQVTVSS
notes: as for B1
As for B10, the binding result in assay [1] is reported as “no binding (tested: 65 nM)”; in assay [2], “no binding (tested: 65 nM)”; in assay [6] it was “binds”; in assay [7] it was “binds”.

B11: nanobody H7 (VHH)
VHH: QVQLQESGGGLVQAGGSLRLSCAASGRTSSSYAVAWFRQAPGKERQFVATIGYDGVTSYYEDSVEGRFTISRDNAKSMVYLQMNSLKPEDTAVYYCGRDRVPGHTWLARPSQADFGSWGQGTQVTVSS
notes: as for B1
Turning to B11, the binding result in assay [8] is on record as “binds”; in assay [1], “no binding (tested: 65 nM)”; in assay [2], “no binding (tested: 65 nM)”; in assay [6], “binds”.

B12: nanobody G6 (VHH)
VHH: QVQLQESGGGLVQPGGSLRLSCEVSGSIFSIDAMAWYRQAPGKQRELVAAILSGGSTNYADSVKGRFAISRDNAKNTGYLQMNSLKPEDTAVYYCNAEGRVSGWGPTEYDYWGQGTQVTVSS
notes: as for B1
For B12, the binding result in assay [1] was “no binding (tested: 65 nM)”; in assay [2], “no binding (tested: 65 nM)”; in assay [6], “binds”; in assay [3], “binds”.

The values above are taken from PMC7886318, “Nanobody generation and structural characterization of Plasmodium falciparum 6-cysteine protein Pf12p” (Biochemical Journal, 2021).
